Laboratory results published in publication PMC10850970, “Characterization of N-glycosylation and its functional role in SIDT1-Mediated RNA uptake”.

Key:
[1] = Amplex Red phospholipase assay; conditions: glycan lost; control: untreated full-length SIDT1
[2] = precipitation after deglycosylation; conditions: glycan lost; control: untreated purified SIDT1ECD
[3] = differential scanning fluorometry (Tycho); conditions: glycan changed form; control: SIDT1ECD expressed without kifunensine, same pH
[4] = 0-4 h incubation at pH 3.5, SDS-PAGE; conditions: glycan changed form; control: SIDT1ECD expressed without kifunensine
SIDT1 ECD = biological target: T1, SIDT1 ECD (Homo sapiens, UniProt Q9NXL6 23-310); experiment: EMSA; pH 5.5; EMSA: 40 mM Tris-acetate pH 5.5, 100 mM NaCl, 2.5 mM EDTA, 5% glycerol, RT 30 min, 2.5 uM RNA; MST: 25 mM MES pH 5.5, 100 mM NaCl, 0.05% Tween-20, 25 C, 5 nM labeled protein; conditions: protein: recombinant; C-terminal 6xHis; label: 5'-FAM; single strand
T1 sequence: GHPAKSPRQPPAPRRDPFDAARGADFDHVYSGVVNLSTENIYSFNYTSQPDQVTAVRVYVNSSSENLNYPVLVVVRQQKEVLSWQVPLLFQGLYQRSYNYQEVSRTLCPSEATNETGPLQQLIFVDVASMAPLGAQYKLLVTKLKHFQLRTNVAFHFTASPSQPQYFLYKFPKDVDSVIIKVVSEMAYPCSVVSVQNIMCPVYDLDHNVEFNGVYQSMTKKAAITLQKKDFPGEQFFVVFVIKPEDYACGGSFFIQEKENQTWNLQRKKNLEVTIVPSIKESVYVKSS

SIDT1 ECD-Fc = biological target: T2, SIDT1 ECD-Fc (Homo sapiens, UniProt Q9NXL6 23-310); experiment: EMSA; pH 5.5; legend says FAM-labeled RNA; EMSA: 40 mM Tris-acetate pH 5.5, 100 mM NaCl, 2.5 mM EDTA, 5% glycerol, RT 30 min, 2.5 uM RNA; MST: 25 mM MES pH 5.5, 100 mM NaCl, 0.05% Tween-20, 25 C, 5 nM labeled protein; conditions: protein: recombinant; tags: C-terminal Fc; chain copies: 2; label: 5'-FAM; single strand
T2 sequence: T1 sequence

B1: SIDT1: PNGase F (protein)
parent chain: MRGCLRLALLCALPWLLLAASPGHPAKSPRQPPAPRRDPFDAARGADFDHVYSGVVNLSTENIYSFNYTSQPDQVTAVRVYVNSSSENLNYPVLVVVRQQKEVLSWQVPLLFQGLYQRSYNYQEVSRTLCPSEATNETGPLQQLIFVDVASMAPLGAQYKLLVTKLKHFQLRTNVAFHFTASPSQPQYFLYKFPKDVDSVIIKVVSEMAYPCSVVSVQNIMCPVYDLDHNVEFNGVYQSMTKKAAITLQKKDFPGEQFFVVFVIKPEDYACGGSFFIQEKENQTWNLQRKKNLEVTIVPSIKESVYVKSSLFSVFIFLSFYLGCLLVGFVHYLRFQRKSIDGSFGSNDGSGNMVASHPIAASTPEGSNYGTIDESSSSPGRQMSSSDGGPPGQSDTDSSVEESDFDTMPDIESDKNIIRTKMFLYLSDLSRKDRRIVSKKYKIYFWNIITIAVFYALPVIQLVITYQTVVNVTGNQDICYYNFLCAHPLGVLSAFNNILSNLGHVLLGFLFLLIVLRRDILHRRALEAKDIFAVEYGIPKHFGLFYAMGIALMMEGVLSACYHVCPNYSNFQFDTSFMYMIAGLCMLKLYQTRHPDINASAYSAYASFAVVIMVTVLGVVFGKNDVWFWVIFSAIHVLASLALSTQIYYMGRFKIDLGIFRRAAMVFYTDCIQQCSRPLYMDRMVLLVVGNLVNWSFALFGLIYRPRDFASYMLGIFICNLLLYLAFYIIMKLRSSEKVLPVPLFCIVATAVMWAAALYFFFQNLSSWEGTPAESREKNRECILLDFFDDHDIWHFLSATALFFSFLVLLTLDDDLDVVRRDQIPVF
In the case of B1, the enzymatic_activity [1] is reported as “no change” and the stability_or_folding [2] is reported as “decreases”.

B2: SIDT1: kifunensine, pH 5.5 (protein)
parent chain: B1 parent chain
For B2, the “stability_or_folding, Tm” value [3] was “decreases, decrease of 1.7 vs 55.1 (pH 7.5), 60.5 (pH 5.5), 61.1 (pH 3.5)”.

B3: SIDT1: kifunensine, pH 3.5 (protein)
parent chain: B1 parent chain
With B3 the “stability_or_folding, Tm” value [3] was “decreases, decrease of 5.4 vs 55.1 (pH 7.5), 60.5 (pH 5.5), 61.1 (pH 3.5)”.

B4: SIDT1: kifunensine (protein)
parent chain: B1 parent chain
For B4, the degradation_or_half_life [4] was “increases”.

UCGCUUGGUGCAGAUCGGGAC (ssRNA) [FAM-ssRNA 21 nt]: binds (SIDT1 ECD); binds (SIDT1 ECD-Fc).
